Results as given in patent US20140274782A1, “AFFINITY REAGENTS AND METHODS FOR DETECTION, PURIFICATION, AND PROTEOMIC ANALYSIS OF METHYLATED PROTEINS” (The Board of Trustees of the Leland Stanford Junior …, priority 2013, published 2014).

B1: DDB1- and CUL4-associated factor 7 (protein, UniProt P61962 1-342, looked up)
DDB1- and CUL4-associated …: MSLHGKRKEIYKYEAPWTVYAMNWSVRPDKRFRLALGSFVEEYNNKVQLVGLDEESSEFICRNTFDHPYPTTKLMWIPDTKGVYPDLLATSGDYLRVWRVGETETRLECLLNNNKNSDFCAPLTSFDWNEVDPYLLGTSSIDTTCTIWGLETGQVLGRVNLVSGHVKTQLIAHDKEVYDIAFSRAGGGRDMFASVGADGSVRMFDLRHLEHSTIIYEDPQHHPLLRLCWNKQDPNYLATMAMDGMEVVILDVRVPCTPVARLNNHRACVNGIAWAPHSSCHICTAADDHQALIWDIQQMPRAIEDPILAYTAEGEINNVQWASTQPDWIAICYNNCLEILRV
B2: Peptidyl-prolyl cis-trans isomerase-like 4 (protein, UniProt Q8WUA2 1-492, looked up)
Peptidyl-prolyl cis-trans …: MAVLLETTLGDVVIDLYTEERPRACLNFLKLCKIKYYNYCLIHNVQRDFIIQTGDPTGTGRGGESIFGQLYGDQASFFEAEKVPRIKHKKKGTVSMVNNGSDQHGSQFLITTGENLDYLDGVHTVFGEVTEGMDIIKKINETFVDKDFVPYQDIRINHTVILDDPFDDPPDLLIPDRSPEPTREQLDSGRIGADEEIDDFKGRSAEEVEEIKAEKEAKTQAILLEMVGDLPDADIKPPENVLFVCKLNPVTTDEDLEIIFSRFGPIRSCEVIRDWKTGESLCYAFIEFEKEEDCEKAFFKMDNVLIDDRRIHVDFSQSVAKVKWKGKGGKYTKSDFKEYEKEQDKPPNLVLKDKVKPKQDTKYDLILDEQAEDSKSSHSHTSKKHKKKTHHCSEEKEDEDYMPIKNTNQDIYREMGFGHYEEEESCWEKQKSEKRDRTQNRSRSRSRERDGHYSNSHKSKYQTDLYERERSKKRDRSRSPKKSKDKEKSKYR
B3: Hematological and neurological-expressed 1-like protein (protein, UniProt Q9H910 1-190, looked up)
Jupiter microtubule …: MFQVPDSEGGRAGSRAMKPPGGESSNLFGSPEEATPSSRPNRMASNIFGPTEEPQNIPKRTNPPGGKGSGIFDESTPVQTRQHLNPPGGKTSDIFGSPVTATSRLAHPNKPKDHVFLCEGEEPKSDLKAARSIPAGAEPGEKGSARKAGPAKEQEPMPTVDSHEPRLGPRPRSHNKVLNPPGGKSSISFY
B4: Apoptosis inhibitor 5 (protein, UniProt Q9BZZ5 2-524, looked up)
Apoptosis inhibitor 5: PTVEELYRNYGILADATEQVGQHKDAYQVILDGVKGGTKEKRLAAQFIPKFFKHFPELADSAINAQLDLCEDEDVSIRRQAIKELPQFATGENLPRVADILTQLLQTDDSAEFNLVNNALLSIFKMDAKGTLGGLFSQILQGEDIVRERAIKFLSTKLKTLPDEVLTKEVEELILTESKKVLEDVTGEEFVLFMKILSGLKSLQTVSGRQQLVELVAEQADLEQTFNPSDPDCVDRLLQCTRQAVPLFSKNVHSTRFVTYFCEQVLPNLGTLTTPVEGLDIQLEVLKLLAEMSSFCGDMEKLETNLRKLFDKLLEYMPLPPEEAENGENAGNEEPKLQFSYVECLLYSFHQLGRKLPDFLTAKLNAEKLKDFKIRLQYFARGLQVYIRQLRLALQGKTGEALKTEENKIKVVALKITNNINVLIKDLFHIPPSYKSTVTLSWKPVQKVEIGQKRASEDTTSGSPPKKSSAGPKRDARQIYNPPSGKYSSNLGNFNYEQRGAFRGSRGGRGWGTRGNRSRGRLY
B5: RNA-binding protein 15 (protein)
chain: MRTAGRDPVPRRSPRWRRAVPLCETSAGRRVTQLRGDDLRRPATMKGKERSPVKAKRSRGGEDSTSRGERSKKLGGSGGSNGSSSGKTDSGGGSRRSLHLDKSSSRGGSREYDTGGGSSSSRLHSYSSPSTKNSSGGGESRSSSRGGGGESRSSGAASSAPGGGDGAEYKTLKISELGSQLSDEAVEDGLFHEFKRFGDVSVKISHLSGSGSGDERVAFVNFRRPEDARAAKHARGRLVLYDRPLKIEAVYVSRRRSRSPLDKDTYPPSASVVGASVGGHRHPPGGGGGQRSLSPGGAALGYRDYRLQQLALGRLPPPPPPPLPRDLERERDYPFYERVRPAYSLEPRVGAGAGAAPFREVDEISPEDDQRANRTLFLGNLDITVTESDLRRAFDRFGVITEVDIKRPSRGQTSTYGFLKFENLDMSHRAKLAMSGKIIIRNPIKIGYGKATPTTRLWVGGLGPWVPLAALAREFDRFGTIRTIDYRKGDSWAYIQYESLDAAHAAWTHMRGFPLGGPDRRLRVDFADTEHRYQQQYLQPLPLTHYELVTDAFGHRAPDPLRGARDRTPPLLYRDRDRDLYPDSDWVPPPPPVRERSTRTAATSVPAYEPLDSLDRRRDGWSLDRDRGDRDLPSSRDQPRKRRLPEESGGRHLDRSPESDRPRKRHCAPSPDRSPELSSSRDRYNSDNDRSSRLLLERPSPIRDRRGSLEKSQGDKRDRKNSASAERDRKHRTTAPTEGKSPLKKEDRSDGSAPSTSTASSKLKSPSQKQDGGTAPVASASPKLCLAWQGMLLLKNSNFPSNMHLLQGDLQVASSLLVEGSTGGKVAQLKITQRLRLDQPKLDEVTRRIKVAGPNGYAILLAVPGSSDSRSSSSSAASDTATSTQRPLRNLVSYLKQKQAAGVISLPVGGNKDKENTGVLHAFPPCEFSQQFLDSPAKALAKSEEDYLVMIIVRGFGFQIGVRYENKKRENLALTLL

Legend:
3×MBT domain of L3MBTL1 = test: Triple SILAC pull-down, 3xMBT/3xMBTD355N ratio (cytoplasmic, nuclear and chromatin fractions of 293T cells); format: binding, human; details: SILAC ratio; for Protein Ratios 3xMBT/D355N: pull-down by 3xMBT vs 3xMBTD355N, 293T cells;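 on all read-outs here: proteins quantified with MaxQuant, requiring at least two unique peptides and quantification in both label directions, normalized to the mean of proteins from a digested loading control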
G9a and GLP = biological target: T1, G9a and GLP (Homo sapiens, UniProt Q96KQ7+Q9H9B1); test: Triple SILAC pull-down after UNC0638 treatment of 293T cells, DMSO/UNC0638 ratio of protein captured by 3×MBT; format: cell-based; set-up: endogenous in cells; host or cells: HEK 293T; details: for Protein Ratios DMSO/UNC0638: SILAC ratio of protein captured by 3xMBT, 293T cells treated 24 hours with UNC0638 at 2.5 μM or DMSO;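 on all read-outs here: mass spectrometry (Q-Exactive) SILAC quantitation, DMSO/UNC0638 ratio computed after subtracting 3×MBTD355N mutant pull-down background, only proteins with at least twofold 3×MBT over mutant signal considered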
T1 sequence (Q96KQ7 2-1210 limits assumed): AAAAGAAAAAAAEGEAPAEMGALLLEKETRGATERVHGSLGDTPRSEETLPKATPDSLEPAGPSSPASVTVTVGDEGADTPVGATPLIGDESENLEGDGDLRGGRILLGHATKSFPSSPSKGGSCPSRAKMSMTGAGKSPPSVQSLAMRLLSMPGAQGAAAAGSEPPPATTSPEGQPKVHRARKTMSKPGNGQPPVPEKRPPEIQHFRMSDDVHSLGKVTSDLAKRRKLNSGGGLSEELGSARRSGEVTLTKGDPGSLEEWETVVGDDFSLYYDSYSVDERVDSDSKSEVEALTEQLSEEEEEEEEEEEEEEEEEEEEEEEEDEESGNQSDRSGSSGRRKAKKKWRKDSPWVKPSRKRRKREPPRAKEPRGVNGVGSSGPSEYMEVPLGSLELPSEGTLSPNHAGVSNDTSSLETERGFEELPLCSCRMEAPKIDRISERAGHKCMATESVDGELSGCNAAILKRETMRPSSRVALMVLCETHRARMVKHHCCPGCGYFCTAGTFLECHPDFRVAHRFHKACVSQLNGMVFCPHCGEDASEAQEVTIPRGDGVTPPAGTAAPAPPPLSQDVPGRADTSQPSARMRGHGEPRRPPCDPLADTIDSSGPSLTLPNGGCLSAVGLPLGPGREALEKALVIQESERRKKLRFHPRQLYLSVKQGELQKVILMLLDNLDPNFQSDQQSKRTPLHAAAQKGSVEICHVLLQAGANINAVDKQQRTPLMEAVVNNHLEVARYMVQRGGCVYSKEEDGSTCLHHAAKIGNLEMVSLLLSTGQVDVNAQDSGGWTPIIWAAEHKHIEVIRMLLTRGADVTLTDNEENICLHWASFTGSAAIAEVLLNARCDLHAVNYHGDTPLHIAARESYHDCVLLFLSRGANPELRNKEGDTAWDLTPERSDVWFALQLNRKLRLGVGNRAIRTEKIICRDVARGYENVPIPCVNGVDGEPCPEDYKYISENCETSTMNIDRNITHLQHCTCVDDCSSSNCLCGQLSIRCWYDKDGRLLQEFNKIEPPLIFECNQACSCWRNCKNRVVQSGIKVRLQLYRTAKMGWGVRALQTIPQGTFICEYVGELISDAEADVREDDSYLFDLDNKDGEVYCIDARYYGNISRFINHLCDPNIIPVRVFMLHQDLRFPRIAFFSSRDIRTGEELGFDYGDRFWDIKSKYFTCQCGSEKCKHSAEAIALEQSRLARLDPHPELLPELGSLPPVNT
T1 sequence (Q9H9B1 2-1298 limits assumed): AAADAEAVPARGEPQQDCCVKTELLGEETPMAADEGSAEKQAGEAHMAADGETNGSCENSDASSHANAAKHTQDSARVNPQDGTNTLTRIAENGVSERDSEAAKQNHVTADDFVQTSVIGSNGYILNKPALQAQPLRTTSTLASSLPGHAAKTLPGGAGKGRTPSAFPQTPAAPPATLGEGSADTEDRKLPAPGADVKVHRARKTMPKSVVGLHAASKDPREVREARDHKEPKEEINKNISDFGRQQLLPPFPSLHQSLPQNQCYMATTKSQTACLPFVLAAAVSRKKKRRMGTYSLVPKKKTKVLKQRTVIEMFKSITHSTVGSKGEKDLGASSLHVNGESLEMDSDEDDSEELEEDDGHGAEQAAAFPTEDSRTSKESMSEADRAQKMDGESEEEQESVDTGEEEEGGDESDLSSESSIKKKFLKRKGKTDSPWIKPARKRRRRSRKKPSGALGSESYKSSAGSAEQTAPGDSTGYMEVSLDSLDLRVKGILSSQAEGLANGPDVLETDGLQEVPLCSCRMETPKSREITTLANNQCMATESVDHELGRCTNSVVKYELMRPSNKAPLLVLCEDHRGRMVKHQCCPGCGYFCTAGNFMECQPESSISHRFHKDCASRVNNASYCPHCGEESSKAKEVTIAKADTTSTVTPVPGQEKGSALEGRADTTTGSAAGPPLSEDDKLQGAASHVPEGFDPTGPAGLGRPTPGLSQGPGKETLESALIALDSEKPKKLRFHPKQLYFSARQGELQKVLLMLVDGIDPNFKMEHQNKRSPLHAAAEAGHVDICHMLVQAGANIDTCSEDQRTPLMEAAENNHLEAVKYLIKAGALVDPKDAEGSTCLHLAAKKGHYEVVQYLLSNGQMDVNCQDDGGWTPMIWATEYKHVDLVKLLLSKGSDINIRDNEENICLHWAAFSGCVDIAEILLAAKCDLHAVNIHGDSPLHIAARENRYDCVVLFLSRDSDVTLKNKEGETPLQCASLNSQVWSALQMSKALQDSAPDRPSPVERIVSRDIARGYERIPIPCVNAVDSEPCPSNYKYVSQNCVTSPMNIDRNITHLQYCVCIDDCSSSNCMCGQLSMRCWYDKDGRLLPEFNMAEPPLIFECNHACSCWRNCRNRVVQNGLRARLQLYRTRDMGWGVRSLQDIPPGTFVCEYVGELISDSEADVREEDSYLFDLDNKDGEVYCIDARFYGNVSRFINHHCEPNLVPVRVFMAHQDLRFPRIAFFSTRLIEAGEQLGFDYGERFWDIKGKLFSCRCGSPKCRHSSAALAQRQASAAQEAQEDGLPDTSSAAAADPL

Molecule | Protein Ratios 3xMBT/D355N (3×MBT domain of L3MBTL1) | Protein Ratios DMSO/UNC0638 (G9a and GLP) | 3xMBT/D355N UNC Heavy (3×MBT domain of L3MBTL1; pull-down 3xMBT vs 3xMBTD355N, experiment with UNC0638 in heavy SILAC media) [log base 2] | 3xMBT/D355N UNC Light (3×MBT domain of L3MBTL1; pull-down 3xMBT vs 3xMBTD355N, experiment with UNC0638 in light SILAC media) [log base 2] | Relative to UNC0638 UNC Heavy (G9a and GLP; SILAC ratio DMSO/UNC0638 of protein pulled down with 3xMBT, UNC0638 in heavy SILAC media) [log base 2] | Relative to UNC0638 UNC Light (G9a and GLP; SILAC ratio DMSO/UNC0638 of protein pulled down with 3xMBT, UNC0638 in light SILAC media) [log base 2] | Relative to UNC0638 Average (G9a and GLP; average of UNC Light and UNC Heavy experiments) [log base 2] | Candidate G9a/GLP target (G9a and GLP; reduced association with 3xMBT after UNC0638 treatment)
B1 | 2.8 | 1.5 |  |  |  |  |  | 
B2 | 4.0 | 1.4 |  |  |  |  |  | 
B3 | 8.9 | 1.6 |  |  |  |  |  | 
B4 | 8.6 | 1.6 |  |  |  |  |  | 
B5 | 9.9 | 1.9 | 2.14 | 4.48 | 1.65 | 0.26 | 0.96 | ✓
